Where a chain is given by its changes, count along the chain named. Names may count otherwise. “And” between values parts separate entries of the source, which are not always exact repeats. Equal values may be shown once. Each block holds one binder with its values, some of them ahead of it.
Tests used:
canine FcRn [1] = target: T1, canine FcRn (canine); experiment: SPR, pH 5.5, FcRn 400 nM over captured Fc
T1 construct: Injected in solution as SPR analyte

canine FcRn [2] = target: T1, canine FcRn; experiment: SPR, pH 5.5, FcRn 200 nM over captured Fc
canine FcRn [3] = target: T1, canine FcRn; experiment: SPR, pH 5.5, FcRn 400 nM over captured Fc; average of the wild type replicates
canine FcRn [4] = target: T1, canine FcRn; experiment: SPR, pH 5.5, FcRn 200 nM over captured Fc; remark: listed apart in the source
canine FcRn [5] = target: T1, canine FcRn; experiment: SPR, pH 5.5, FcRn 200 nM over captured Fc; remark: listed apart in the source
canine FcRn [6] = target: T1, canine FcRn; experiment: SPR, pH 5.5, FcRn 200 nM over captured Fc; remark: listed apart in the source
canine FcRn [7] = target: T1, canine FcRn; experiment: SPR, pH 5.5, FcRn 200 nM over captured Fc; remark: listed apart in the source
canine FcRn [8] = target: T1, canine FcRn; experiment: SPR, pH 5.5, FcRn 100-800 nM over captured Fc
canine FcRn [9] = target: T1, canine FcRn; experiment: SPR, pH 5.5, FcRn 200 nM over captured Fc; remark: listed apart in the source
canine FcRn [10] = target: T1, canine FcRn; experiment: SPR, pH 5.5, FcRn 200 nM over captured Fc; remark: listed apart in the source
canine FcRn [11] = target: T1, canine FcRn; experiment: SPR, pH 5.5, FcRn 200 nM over captured Fc; remark: listed apart in the source

B1: canine IgG.B Fc variant E380A with SASA tag (Fc fusion)
chain: APEMLGGPSVFIFPPKPKDTLLIARTPEVTCVVVDLDPEDPEVQISWFVDGKQMQTAKTQPREEQFNGTYRVVSVLPIGHQDWLKGKQFTCKVNNKALPSPIERTISKARGQAHQPSVYVLPPSREELSKNTVSLTCLIKDFFPPDIDVAWQSNGQQEPESKYRTTPPQLDEDGSYFLYSKLSVDKSRWQRGDTFICAVMHEALHNHYTQESLSHSPGK
Kd (canine FcRn [1]): 618 nM and 747 nM
koff (canine FcRn [1]): 0.369 s⁻¹ and 0.18 s⁻¹
kon (canine FcRn [1]): 598000 M⁻¹ s⁻¹ and 241000 M⁻¹ s⁻¹
Kd (canine FcRn [2]): 1320 nM and 1570 nM
koff (canine FcRn [2]): 0.223 s⁻¹ and 0.239 s⁻¹
kon (canine FcRn [2]): 168000 M⁻¹ s⁻¹ and 152000 M⁻¹ s⁻¹

B3: canine IgG.B Fc variant L252M with SASA tag (Fc fusion)
chain: B1 chain with L22M, A150E
Kd (canine FcRn [4]): 869 nM and 774 nM
koff (canine FcRn [4]): 0.168 s⁻¹ and 0.169 s⁻¹
kon (canine FcRn [4]): 193000 M⁻¹ s⁻¹ and 218000 M⁻¹ s⁻¹

B4: canine IgG.B Fc variant L252Y with SASA tag (Fc fusion)
chain: B1 chain with L22Y, A150E
Kd (canine FcRn [4]): 98.7 nM and 114 nM
koff (canine FcRn [4]): 0.0397 s⁻¹ and 0.041 s⁻¹
kon (canine FcRn [4]): 402000 M⁻¹ s⁻¹ and 358000 M⁻¹ s⁻¹
Kd (canine FcRn [8]): 173 nM
koff (canine FcRn [8]): 0.0476 s⁻¹
kon (canine FcRn [8]): 275000 M⁻¹ s⁻¹

B5: canine IgG.B Fc variant D378V with SASA tag (Fc fusion)
chain: B1 chain with D148V, A150E
Kd (canine FcRn [11]): 693 nM and 873 nM
koff (canine FcRn [11]): 0.159 s⁻¹ and 0.16 s⁻¹
kon (canine FcRn [11]): 229000 M⁻¹ s⁻¹ and 184000 M⁻¹ s⁻¹

B8: canine IgG.B Fc variant A254T with SASA tag (Fc fusion)
chain: B1 chain with A24T, A150E
Kd (canine FcRn [7]): 2290 nM and 1340 nM
koff (canine FcRn [7]): 0.375 s⁻¹ and 0.433 s⁻¹
kon (canine FcRn [7]): 163000 M⁻¹ s⁻¹ and 323000 M⁻¹ s⁻¹

B10: canine IgG.B Fc variant G309P with SASA tag (Fc fusion)
chain: B1 chain with G79P, A150E
Kd (canine FcRn [5]): 635 nM and 434 nM and 637 nM and 718 nM
koff (canine FcRn [5]): 0.239 s⁻¹ and 0.242 s⁻¹ and 0.132 s⁻¹ and 0.145 s⁻¹
kon (canine FcRn [5]): 377000 M⁻¹ s⁻¹ and 558000 M⁻¹ s⁻¹ and 207000 M⁻¹ s⁻¹ and 202000 M⁻¹ s⁻¹

Next, values leading:

Kd (canine FcRn [3]): 566 nM
Kd (canine FcRn [4]): 1710 nM and 2660 nM
koff (canine FcRn [4]): 0.288 s⁻¹ and 0.326 s⁻¹
kon (canine FcRn [4]): 168000 M⁻¹ s⁻¹ and 123000 M⁻¹ s⁻¹
Kd (canine FcRn [5]): 884 nM and 862 nM
koff (canine FcRn [5]): 0.21 s⁻¹ and 0.218 s⁻¹
kon (canine FcRn [5]): 237000 M⁻¹ s⁻¹ and 253000 M⁻¹ s⁻¹
Kd (canine FcRn [6]): 955 nM and 1310 nM
koff (canine FcRn [6]): 0.181 s⁻¹ and 0.209 s⁻¹
kon (canine FcRn [6]): 190000 M⁻¹ s⁻¹ and 159000 M⁻¹ s⁻¹
Kd (canine FcRn [7]): 2050 nM and 2990 nM
koff (canine FcRn [7]): 0.31 s⁻¹ and 0.315 s⁻¹
kon (canine FcRn [7]): 151000 M⁻¹ s⁻¹ and 105000 M⁻¹ s⁻¹
Kd (canine FcRn [8]): 3150 nM
koff (canine FcRn [8]): 0.527 s⁻¹
kon (canine FcRn [8]): 168000 M⁻¹ s⁻¹
Kd (canine FcRn [2]): 1560 nM and 754 nM
koff (canine FcRn [2]): 0.179 s⁻¹ and 0.182 s⁻¹
kon (canine FcRn [2]): 115000 M⁻¹ s⁻¹ and 242000 M⁻¹ s⁻¹
Kd (canine FcRn [9]): 639 nM and 692 nM
koff (canine FcRn [9]): 0.17 s⁻¹ and 0.171 s⁻¹
kon (canine FcRn [9]): 267000 M⁻¹ s⁻¹ and 247000 M⁻¹ s⁻¹
Kd (canine FcRn [10]): 8990 nM and 3110 nM
koff (canine FcRn [10]): 0.347 s⁻¹ and 0.354 s⁻¹
kon (canine FcRn [10]): 38700 M⁻¹ s⁻¹ and 114000 M⁻¹ s⁻¹
Kd (canine FcRn [11]): 502 nM and 784 nM
koff (canine FcRn [11]): 0.169 s⁻¹ and 0.207 s⁻¹
kon (canine FcRn [11]): 336000 M⁻¹ s⁻¹ and 264000 M⁻¹ s⁻¹
B2: wild-type canine IgG.B Fc (CH2 and CH3 domains) with upstream SASA tag (Fc fusion)
chain: B1 chain with A150E

Kd (canine FcRn [10]): 2590 nM and 2840 nM
koff (canine FcRn [10]): 0.258 s⁻¹ and 0.268 s⁻¹
kon (canine FcRn [10]): 99600 M⁻¹ s⁻¹ and 94300 M⁻¹ s⁻¹
B6: canine IgG.B Fc variant T250Q with SASA tag (Fc fusion)
chain: B1 chain with T20Q, A150E

Kd (canine FcRn [6]): 107 nM and 159 nM
koff (canine FcRn [6]): 0.0524 s⁻¹ and 0.0633 s⁻¹
kon (canine FcRn [6]): 488000 M⁻¹ s⁻¹ and 399000 M⁻¹ s⁻¹
Kd (canine FcRn [8]): 182 nM
koff (canine FcRn [8]): 0.0801 s⁻¹
kon (canine FcRn [8]): 440000 M⁻¹ s⁻¹
B7: canine IgG.B Fc variant N434R with SASA tag (Fc fusion)
chain: B1 chain with A150E, N206R

Kd (canine FcRn [10]): 2480 nM and 1660 nM
koff (canine FcRn [10]): 0.284 s⁻¹ and 0.287 s⁻¹
kon (canine FcRn [10]): 114000 M⁻¹ s⁻¹ and 172000 M⁻¹ s⁻¹
B9: canine IgG.B Fc variant T250E with SASA tag (Fc fusion)
chain: B1 chain with T20E, A150E

Kd (canine FcRn [9]): 372 nM and 439 nM
koff (canine FcRn [9]): 0.566 s⁻¹ and 0.696 s⁻¹
kon (canine FcRn [9]): 1.52e+06 M⁻¹ s⁻¹ and 1.59e+06 M⁻¹ s⁻¹
B11: canine IgG.B Fc variant Q311V with SASA tag (Fc fusion)
chain: B1 chain with Q81V, A150E

— patent US20230279118A1 (published 2023)
